The values below are quoted from earlier work in patent publication US11229683B2, “Hematopoietic growth factor proteins and analogs thereof and angiotensin converting enzyme inhibitors for treatment of radiation exposure” (priority 2015, dated 2022).

In data set [1] the test system is chemotherapy (cyclophosphamide)-treated rats. The settings on record: single injection; cited from earlier work.
The next data set deals with irradiated monkeys. The settings on record: cited from earlier work; for survival versus vehicle: daily sc treatment started 48 h post-TBI.

Read-outs that look alike come from different tables or passages of the source.

B1: G-CSF: human G-CSF (filgrastim (Neupogen, Amgen, Inc.) (protein, listed as Homo sapiens)
chain: TPLGPASSLPQSFLLKCLEQVRKIQGDGAALQEKLCATYKLCHPEELVLLGHSLGIPWAPLSSCPSQALQLAGCLSQLHSGLFLYQGLLQALEGISPELGPTLDTLQLDVADFATTIWQQMEELGMAPALQPTQGAMPAFASAFQRRAGGVLVASHLQSFLEVSYRVLRHLAQP
Consider B1, for which the recovery from neutropenia result in data set [1] is reported as “ineffective”. In addition, in the data set on irradiated monkeys (daily sc 0.01 mg/kg/day for 16-23 days, started 24 h post-TBI), the “60-day survival of rhesus monkeys” value is listed as “increased 60-day survival”. Also, in the data set on irradiated monkeys (daily sc beginning 24 h post-TBI for about 16 days, placebo 50%), the “survival of irradiated monkeys” value is given as 80%. For the same molecule, the survival versus vehicle result is recorded as “did not increase survival” with irradiated monkeys and “but not when administered at 48 h post-TBI” in the data set with irradiated monkeys (listed as filgrastim).
